Laboratory results published in PMC2169462 (The Journal of Cell Biology, 2001).

B1: recombinant Kap121p (natural protein)
chain: MSALPEEVNRTLLQIVQAFASPDNQIRSVAEKALSEEWITENNIEYLLTFLAEQAAFSQDTTVAALSAVLFRKLALKAPPSSKLMIMSKNITHIRKEVLAQIRSSLLKGFLSERADSIRHKLSDAIAECVQDDLPAWPELLQALIESLKSGNPNFRESSFRILTTVPYLITAVDINSILPIFQSGFTDASDNVKIAAVTAFVGYFKQLPKSEWSKLGILLPSLLNSLPRFLDDGKDDALASVFESLIELVELAPKLFKDMFDQIIQFTDMVIKNKDLEPPARTTALELLTVFSENAPQMCKSNQNYGQTLVMVTLIMMTEVSIDDDDAAEWIESDDTDDEEEVTYDHARQALDRVALKLGGEYLAAPLFQYLQQMITSTEWRERFAAMMALSSAAEGCADVLIGEIPKILDMVIPLINDPHPRVQYGCCNVLGQISTDFSPFIQRTAHDRILPALISKLTSECTSRVQTHAAAALVNFSEFASKDILEPYLDSLLTNLLVLLQSNKLYVQEQALTTIAFIAEAAKNKFIKYYDTLMPLLLNVLKVNNKDNSVLKGKCMECATLIGFAVGKEKFHEHSQELISILVALQNSDIDEDDALRSYLEQSWSRICRILGDDFVPLLPIVIPPLLITAKATQDVGLIEEEEAANFQQYPDWDVVQVQGKHIAIHTSVLDDKVSAMELLQSYATLLRGQFAVYVKEVMEEIALPSLDFYLHDGVRAAGATLIPILLSCLLAATGTQNEELVLLWHKASSKLIGGLMSEPMPEITQVYHNSLVNGIKVMGDNCLSEDQLAAFTKGVSANLTDTYERMQDRHGDGDEYNENIDEEEDFTDEDLLDEINKSIAAVLKTTNGHYLKNLENIWPMINTFLLDNEPILVIFALVVIGDLIQYGGEQTASMKNAFIPKVTECLISPDARIRQAASYIIGVCAQYAPSTYADVCIPTLDTLVQIVDFPGSKLEENRSSTENASAAIAKILYAYNSNIPNVDTYTANWFKTLPTITDKEAASFNYQFLSQLIENNSPIVCAQSNISAVVDSVIQALNERSLTEREGQTVISSVKKLLGFLPSSDAMAIFNRYPADIMEKVHKWFA
B2: recombinant Kap95p (natural protein)
chain: MSTAEFAQLLENSILSPDQNIRLTSETQLKKLSNDNFLQFAGLSSQVLIDENTKLEGRILAALTLKNELVSKDSVKTQQFAQRWITQVSPEAKNQIKTNALTALVSIEPRIANAAAQLIAAIADIELPHGAWPELMKIMVDNTGAEQPENVKRASLLALGYMCESADPQSQALVSSSNNILIAIVQGAQSTETSKAVRLAALNALADSLIFIKNNMEREGERNYLMQVVCEATQAEDIEVQAAAFGCLCKIMSLYYTFMKPYMEQALYALTIATMKSPNDKVASMTVEFWSTICEEEIDIAYELAQFPQSPLQSYNFALSSIKDVVPNLLNLLTRQNEDPEDDDWNVSMSAGACLQLFAQNCGNHILEPVLEFVEQNITADNWRNREAAVMAFGSIMDGPDKVQRTYYVHQALPSILNLMNDQSLQVKETTAWCIGRIADSVAESIDPQQHLPGVVQACLIGLQDHPKVATNCSWTIINLVEQLAEATPSPIYNFYPALVDGLIGAANRIDNEFNARASAFSALTTMVEYATDTVAETSASISTFVMDKLGQTMSVDENQLTLEDAQSLQELQSNILTVLAAVIRKSPSSVEPVADMLMGLFFRLLEKKDSAFIEDDVFYAISALAASLGKGFEKYLETFSPYLLKALNQVDSPVSITAVGFIADISNSLEEDFRRYSDAMMNVLAQMISNPNARRELKPAVLSVFGDIASNIGADFIPYLNDIMALCVAAQNTKPENGTLEALDYQIKVLEAVLDAYVGIVAGLHDKPEALFPYVGTIFQFIAQVAEDPQLYSEDATSRAAVGLIGDIAAMFPDGSIKQFYGQDWVIDYIKRTRSGQLFSQATKDTARWAREQQKRQLSL

Biological target: His6-tagged human RanGTP Q69L (human, UniProt P62826 1-216, Q69L)
Test: pull-down

Binder	binding result
B1	binds
B2	binds
